Source: paper PMC12060649, “Tuning the Dimensionality of Protein–Peptide Coassemblies to Build 2D Conductive Nanomaterials” (ACS Nano, 2025)

B1: E9 peptide (peptide)
peptide: EEFEFEFEFEFEFEE
notes: designed amphiphilic peptide, E6 with additional glutamic acids at both termini
B2: E7 peptide (peptide)
peptide: EFEFEFEFEFEFE
notes: designed amphiphilic peptide, E6 with one more glutamic acid at the N-terminus; In the coassemblies it stood as pre-formed, sonicated self-assembled fibres; also called E7 fibers; E7 self-assembled fibers
B3: 6-repeat peptide (FE)6, E6 (peptide)
peptide: FEFEFEFEFEFE
notes: designed amphiphilic peptide, six repeats of the dipeptide Phe-Glu; Forms supramolecular fibres; also called (FE)n with n = 6

Target: the molecule itself
Test: AFM + other: TEM; peptides in water at pH ≈ 5, sonicated 10 min, annealed at 80° for 30 min; AFM on mica at 1 mM, dry tapping mode; TEM at 10 μM, negative staining with uranyl acetate

Binding result, binds:
B1, B2, B3
